According to paper PMC3223204, “Implantation Serine Proteinase 1 Exhibits Mixed Substrate Specificity that Silences Signaling via Proteinase-Activated Receptors” (PLoS ONE, 2011):
“Also recorded” adds a separate entry of the source.

How the values were obtained:
thrombin = molecular target: T1, thrombin (Homo sapiens, UniProt P00734); assay: Effect of ISP1 on enzyme activity of thrombin; format: biochemical; details: data not shown
T1 construct: High activity human thrombin (cat. number 605195, lot B37722; 3,186 NIH units/mg) was from Calbiochem; purchased Calbiochem 605195

[1] = tested on: rat PAR2-expressing KNRK cells; assay: P44/42 ERK/MAP kinase activation in rat PAR2-expressing KNRK cells; format: cell-based; details: ISP1 for 10 min
Protocol: Western blot detection of P44/42 ERK was performed essentially as described. In brief, KNRK cells that had been transfected with the PAR2 expressing construct (PAR2 -KNRK) or empty vector (pcDNA3-KNRK) were serum starved and stimulated with ISP1 for 10 min. Cells were placed on ice and agonists were removed prior to lysis with cold lysis buffer (Roche). Protein samples were boiled for 10 min in Laemelis buffer and resolved on SDS-PAGE gels. Activation of MAP Kinase was monitored by immunoblotting with phospho-specific ERK antibodies (Cell signaling) and relative increases in ERK phosphorylation was quantified relative to total ERK signal detected in the same samples. As a positive control cells were activated with SLIGRL-NH2 that causes a PAR2-mediated increase in MAPkinase phosphorylation.

rat PAR4 = molecular target: T2, rat PAR4 (Rattus norvegicus, UniProt Q920E0); assay: Calcium signaling assay, PAR4 activation/disarming in rat platelets; format: cell-based
T2 construct: rat platelets that express only functional PAR4 but neither PAR1 nor PAR2; endogenous in cells; host or cells: rat platelets from platelet-rich plasma
T2 sequence (Q920E0 17-395): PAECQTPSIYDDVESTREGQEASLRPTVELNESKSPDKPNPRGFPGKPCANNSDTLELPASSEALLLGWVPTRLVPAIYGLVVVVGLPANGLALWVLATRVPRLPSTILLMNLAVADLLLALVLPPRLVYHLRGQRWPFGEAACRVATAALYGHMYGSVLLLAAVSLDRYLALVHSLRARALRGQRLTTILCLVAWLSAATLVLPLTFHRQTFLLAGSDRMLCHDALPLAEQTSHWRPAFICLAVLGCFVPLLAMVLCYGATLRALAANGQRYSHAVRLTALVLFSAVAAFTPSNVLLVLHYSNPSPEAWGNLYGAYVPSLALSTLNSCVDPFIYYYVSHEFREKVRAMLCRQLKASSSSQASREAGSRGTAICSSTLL
Protocol: Cell lines (grown to about 85% confluence and disaggregated with calcium-free isotonic phosphate-buffered saline containing 0.2 mM EDTA) and rat platelets (harvested from platelet-rich anti-coagulated plasma) were prepared and used as previously described. Cells were incubated for 25 min at room temperature with Fluo-3 acetoxymethyl ester (final concentration, 22 µM) along with 0.4 mM sulfinpyrazone. Cells were washed twice by centrifugation (using the following buffer without calcium) and resuspended in the calcium signaling buffer: 150 mM NaCl, 3 mM KCl, 1.5 mM CaCl2, 20 mM HEPES, 10 mM dextrose, and 0.25 mM sulfinpyrazone, pH 7.4.
Fluorescence was measured at 24 °C with an excitation wavelength of 480 nm and an emission recorded at 530 nm using an Aminco Bowman Series 2 Luminescence spectrometer (ThermoSpectronic Model FA354, Spectronic Unicam, Rochester, NY). The fluorescence signals caused by the addition of test agonists (trypsin, PAR-activating peptide or rISP1, added to 2 ml of a cell suspension of ~3 x 10^5 cells/ml) were compared with the fluorescence peak height yielded by replicate cell suspensions treated with 2 µM ionophore A23187. This concentration of A23187 was at the plateau of its concentration-response curve for a fluorescence response in Fluo-3-loaded cultured cells. Under these conditions, the calculated values for intracellular calcium in the HEK and KNRK cells were [picture] 30 nM under basal conditions and about 340 nM upon exposure to A23187 [8, 9].
Previous work has shown that the fluorescence response of a cell preparation, as a percentage relative to the signal generated by 2 µM A23187, is a valid reference standard for the comparative determination of calcium signals for all PAR agonists. The cellular calcium response was therefore recorded as a percentage of the response generated by 2 µM ionophore A23187 [6]. Concentration-effect curves for recombinant enzyme (rISP1) were obtained by measuring the calcium signals generated by measuring the effects (receptor activation or disarming) of increasing enzyme concentrations in replicate cell suspensions (2 ml).
Receptor activation was monitored as an enzyme-stimulated increase in fluorescence emission (E530). As outlined in the following paragraph, receptor disarming or disabling was ascertained by the ability of ISP1 pre-treatment of the cells to abrogate the calcium signal caused by the subsequent addition of either a PAR-activating enzyme (thrombin for PARs 1 & 4; trypsin for PAR2) or a PAR-activating peptide (a reduced response to the activating peptide reflects receptor disabling). […]

B1: ISP1: recombinant implantation serine proteinase 1 expressed in Pichia pastoris, also known as Mouse Prss28 (protein, UniProt Q924N9 27-274, looked up)
Serine protease 28: KPVGIVGGQRTPPGKWPWQVSLRMYSYEVNSWVHICGGSIIHPQWILTAAHCIQSQDADPAVYRVQVGEVYLYKEQELLNISRIIIHPDYNDVSKRFDLALMQLTALLVTSTNVSPVSLPKDSSTFDSTDQCWLVGWGNLLQRVPLQPPYQLHEVKIPIQDNKSCKRAYRKKSSDEHKAVAIFDDMLCAGTSGRGPCFGDSGGPLVCWKSNKWIQVGVVSKGIDCSNNLPSIFSRVQSSLAWIHQHIQ
modifications: recombinant, Pichia pastoris-expressed
notes: recombinant implantation serine proteinase 1 expressed in Pichia pastoris, also known as Mouse Prss28
For B1, the “Inhibitory effect on enzyme activity of thrombin” value (thrombin) was “doesn't have any inhibitory effect”, the “Phosphorylation status of ERK via MAP kinase activation” value [1] was “No change in phosphorylation status of ERK; also recorded: No activation of ERK” and the “Cellular response to PAR4-activating peptide after ISP1 pre-treatment” value (rat PAR4; AYPGKF-NH2 (100 µM), concentration-dependent) was “diminished”. The “Activation of a calcium signal via PAR4” value (rat PAR4; enzyme alone) was “did not activate a calcium signal”, the “residual PAR4 activity triggered by thrombin” value (rat PAR4; pre-treatment with 5 Units/ml ISP1, then thrombin (0.5 units/ml)) was about 75% and the “residual PAR4 activity (% of control)” value (rat PAR4; pre-treatment with 20 units ISP1/ml, then thrombin (0.5 units/ml)) was about 20%.
